Laboratory results taken from the supplement of paper PMC9170038.

System: MS2 coat protein
Assay: apparent KD of MS2 coat protein; designed switch direction (-1 OFF switch, 1 ON switch): -1; higher = weaker reporter binding
Summary of the method: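 The buffer was Tris-HCl pH 7.5 with KCl, MgCl2, BSA, DTT, tRNA and Tween-20. In it, SNAP-549-labelled MS2 coat protein was titrated in doubling steps from 0.7 or 1.5 nM to 3 µM over chip-bound RNA switches transcribed by stalled E. coli RNA polymerase on Illumina chips. Apparent KD is the per-design median over clusters of curve fits to normalised fluorescence.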

[1] = input ligand: microRNA oligo, concentration not stated
[2] = Eterna round: R95, input ligand: FMN 200 uM
[3] = Eterna round: R95, input ligand: microRNA oligo, concentration not stated
[4] = Eterna round: R95, input ligand: none

Sequence: AGCUAGAUAGGAUAUGCCCGGGAUAACAUGAGGAUCACCCAUGUGACCGAAUCAUGUCCAGCAGAAGGGUUUGGGA [Mod of ViennaUCT 9 - Jieux - Exclusion 5] (Eterna round: R97, puzzle: Exclusion 5)
- apparent KD of MS2 coat protein (input ligand: FMN 200 uM): 34.7 nM
- apparent KD of MS2 coat protein (input ligand: none): 23.3 nM

Sequence: UUAUUAGCAGGAUAUAUCCGGGAUCACAUGAGGAUCACCCAUGUGACCGCUUGAGAUUCUAUAGAAGGGCUUUAUU [Mod of ViennaUCT 32 - Jieux - Exclusion 5] (Eterna round: R97, puzzle: Exclusion 5)
- apparent KD of MS2 coat protein (input ligand: FMN 200 uM): 19.6 nM
- apparent KD of MS2 coat protein (input ligand: none): 18.6 nM

Sequence: GUCGUGCAGCUUUGCUGUACGAGUACAUGAGGAUCACCCAUGUAGGAUAUGGUACGCUUUGCGUGCCAGAAGGACGUGCGUUAG [salish99_ExNG3_r04_001] (Eterna round: R96, puzzle: Exclusion NG 3)
- apparent KD of MS2 coat protein (input ligand: FMN 200 uM): 53.3 nM
- apparent KD of MS2 coat protein [1]: 35.2 nM
- apparent KD of MS2 coat protein (input ligand: none): 39.3 nM

Sequence: AGAAAUGUCCAUGGCCGCAAGCUUUUUACUUGUCUUACCACAUGAGGAUCACCCAUGUGACAUGGACUCCUUAUGAU [Sensor v3, turn-off variant 2 (MOD of Oranla v.3)] (puzzle: Sensor v3, turn-off variant 2)
- apparent KD of MS2 coat protein [2]: 17 nM
- apparent KD of MS2 coat protein [3]: 43 nM
- apparent KD of MS2 coat protein [4]: 14.8 nM

Sequence: UAUCGGGACUGAGGAUAUUCGUUCGAACGCGAAGAAGAAGGUAGUGUCAGGGACAUGAGGAUCACCCAUGUGAUUUCAGUCCCA [JL ViennaUCT Erinle mod 5] (Eterna round: R96, puzzle: Exclusion NG 1)
- apparent KD of MS2 coat protein (input ligand: FMN 200 uM): 98.2 nM
- apparent KD of MS2 coat protein [1]: 56.1 nM
- apparent KD of MS2 coat protein (input ligand: none): 99 nM

Sequence: GUCAGGAAUGUAGGAUAUCUGCACGAUUAGUGCAGAGAAGGACAUGAGGAUCACCCAUGUAUAGUAGCUUCGGCUACACCUGAC [ENG1-A1] (Eterna round: R96, puzzle: Exclusion NG 1)
- apparent KD of MS2 coat protein (input ligand: FMN 200 uM): 16.7 nM
- apparent KD of MS2 coat protein [1]: 14 nM
- apparent KD of MS2 coat protein (input ligand: none): 19.5 nM

Sequence: GAUUAUGCGAGCUUUAGGGACAUGAGGAUCACCCAUGUUCGUCUUAUUGGUCUAAGUGCACUAACAUACCUAAAUCU [JMF 30] (puzzle: Sensor v3, turn-off variant 1)
- apparent KD of MS2 coat protein [2]: 21.2 nM
- apparent KD of MS2 coat protein [3]: 38.5 nM
- apparent KD of MS2 coat protein [4]: 20 nM

Sequence: UUAGCGUAUGUAAGGAUAUGCUGGUCUAAUGAUCAGCAGAAGGUACAUGAGGAUCACCCAUGUGUAUUCGUUAU [Mod of JL 7 - Jieux - Brourd's mod of Exclusion 4] (Eterna round: R97, puzzle: Brourd's mod of Exclusion 4)
- apparent KD of MS2 coat protein (input ligand: FMN 200 uM): 75.9 nM
- apparent KD of MS2 coat protein (input ligand: none): 18.4 nM

Sequence: CGACUGUGAGGAUAUGGUGAGUAGUGCCUGAGCGCUGCUCACCAGAAGGCACAUGAGGAUCACCCAUGUAUAGC [Mat - Exclusion 4 - Mod of JL - D9] (puzzle: Exclusion 4)
- apparent KD of MS2 coat protein [3]: 31.7 nM

Sequence: CAUUGUUAUCGAGGAUAUCCUAUUGAGAUUCUAGGAGAAGGCGGACUAAACAUGAGGAUCACCCAUGUGGGACGGAUGCUAGGG [Ex NG1 #30] (Eterna round: R96, puzzle: Exclusion NG 1)
- apparent KD of MS2 coat protein (input ligand: FMN 200 uM): 31.4 nM
- apparent KD of MS2 coat protein [1]: 19.8 nM
- apparent KD of MS2 coat protein (input ligand: none): 25.2 nM

Sequence: AUUUCGGCAGGAUAUACAUGAGGAUCACCCAUGUAAAUUUUUCGUUUAACUUGAAUGUGUAGAAGGGCCAUUUA [Ex3 #61] (Eterna round: R97, puzzle: Exclusion 3)
- apparent KD of MS2 coat protein (input ligand: FMN 200 uM): 21.8 nM
- apparent KD of MS2 coat protein (input ligand: none): 26.6 nM

Sequence: UAAUAAAGUGUGAGGAUAUGCUGGUCCUUGGAUCAGCAGAAGGCACAUGAGGAUCACCCAUGUAAUAUAUAUAU [Mat - Exclusion 4 - JL Mod - D54] (puzzle: Brourd's mod of Exclusion 4)
- apparent KD of MS2 coat protein [3]: 62.4 nM

Sequence: AAGAAACAUGAGGAUCACCCAUGUGAGGAUAUGAGUAAGAAAAGAAAAGAAAGAAGACUCAGAAGGCACAAAGG [salish99-ex1_r3_074] (puzzle: Exclusion 1)
- apparent KD of MS2 coat protein [2]: 135 nM
- apparent KD of MS2 coat protein [3]: 110 nM
- apparent KD of MS2 coat protein [4]: 86.8 nM

Sequence: GCAGCUAACACAGAUAUGUGCACAUGAGGAUCACCCAUGUCACAGGAUAUGGACUGGAUUACAGUCCAGAAGGGUGAAUGCUGC [Zipper Style 6] (Eterna round: R96, puzzle: Exclusion NG 3)
- apparent KD of MS2 coat protein (input ligand: FMN 200 uM): 10.2 nM
- apparent KD of MS2 coat protein [1]: 7.97 nM
- apparent KD of MS2 coat protein (input ligand: none): 14 nM

Sequence: GUGAAGUGAGGAUAUAUGAGAGAGGCUGAACCGGACGAGAAGUAGAAGGCACAUGAGGAUCACCCAUGUAAGGG [JR_Exclu4_Sub024] (puzzle: Exclusion 4)
- apparent KD of MS2 coat protein [2]: 293 nM
- apparent KD of MS2 coat protein [3]: 255 nM
- apparent KD of MS2 coat protein [4]: 372 nM

Sequence: UUAAAUCAUGUAGGAUAUGCUUUGCAAAGCGAGGCAGAAGGACAUGAGGAUCACCCAUGUGCUAGCGUCCGAGAACGGAUGCAA [Mat - Exclusion NG 1 - Mod of JL - D64] (Eterna round: R96, puzzle: Exclusion NG 1)
- apparent KD of MS2 coat protein (input ligand: FMN 200 uM): 503 nM
- apparent KD of MS2 coat protein [1]: 41.6 nM
- apparent KD of MS2 coat protein (input ligand: none): 46.6 nM

Sequence: UUUAAUUUUUUUUUUUUACAAGCUUUUUGCUCGUCUUAUACAUGAGGAUCACCCAUGUGGGUGGAGGGUAAAUUAUC [JMF 89] (puzzle: Sensor v3, turn-off variant 2)
- apparent KD of MS2 coat protein [2]: 35.9 nM
- apparent KD of MS2 coat protein [3]: 63.6 nM
- apparent KD of MS2 coat protein [4]: 67 nM

Sequence: AUUUUGUCAGGAUAUGACUAGAUGCACGAAAGUGCAUCUACUUAGAAGGGACAUGAGGAUCACCCAUGUAUUCC [Bring Us a Shrubbery-11] (puzzle: Exclusion 4)
- apparent KD of MS2 coat protein [3]: 13.9 nM

Sequence: AAAUCUGAGAAGGAUAUGGUACAGGAAAUGGUGCCAGAAGGUUUCACAUGAGGAUCACCCAUGUCGAAUAGUGA [EX6 #65] (Eterna round: R97, puzzle: Exclusion 6)
- apparent KD of MS2 coat protein (input ligand: FMN 200 uM): 29.6 nM
- apparent KD of MS2 coat protein (input ligand: none): 19.3 nM

Sequence: AAGAUUAGGAAAGGAUAUAAAGAGAAACAAAGUGCACAUGAGGAUCACCCAUGUACUGACACGCGUUAGAAGGUUCCAGUCCUC [Eternabot solution 40] (Eterna round: R96, puzzle: Exclusion NG 2)
- apparent KD of MS2 coat protein (input ligand: FMN 200 uM): 18.1 nM
- apparent KD of MS2 coat protein [1]: 15.5 nM
- apparent KD of MS2 coat protein (input ligand: none): 25.4 nM

Sequence: GUUAAGGUAGGAUAUACGAUAAUAUAGGGUAGAUAUAUAACACAUGAGGAUCACCCAUGUAGAAGGACCAAGUG [Mat - Exclusion 2 - Mod of my Tesla design - D60] (puzzle: Exclusion 2)
- apparent KD of MS2 coat protein [3]: 43.4 nM

Sequence: UAUAAAGGCUCAGGAUAUGGUGCGUCACAUGAGGAUCACCCAUGUAACGUGGCGGAACCUGCGCGCUAGAAGGGAGUAGCGAAA [Laensoqu] (Eterna round: R96, puzzle: Exclusion NG 2)
- apparent KD of MS2 coat protein (input ligand: FMN 200 uM): 8.44 nM
- apparent KD of MS2 coat protein [1]: 8.05 nM
- apparent KD of MS2 coat protein (input ligand: none): 10.7 nM

Sequence: UCGCUGCGAGGAUAUACAUGAGGAUCACCCAUGUACGGGUCCGGGUUUUCGUCCAUUAGUAGAAGGCGCAGUGA [JL Laongeedie mod 1] (puzzle: Exclusion 3)
- apparent KD of MS2 coat protein [3]: 136 nM

Sequence: CCUAUGUUAGGAUAUUGCUCUCAGCCGUAGGAGGACAUGACCGAGAAGGAACAUGAGGAUCACCCAUGUGUAUU [Eternabot (L2) Solution 53] (Eterna round: R97, puzzle: Exclusion 4)
- apparent KD of MS2 coat protein (input ligand: FMN 200 uM): 17.4 nM
- apparent KD of MS2 coat protein (input ligand: none): 24 nM

Sequence: AAACAAGCGUGAGGCUCGUCUUAAAAAGCUUCAUGAAAAACAUGAGGAUCACCCAUGUAAAAUGAUCGAAAGAUCAA [JL turnoff v2 28] (Eterna round: R96, puzzle: Sensor v2, turn-off variant 2)
- apparent KD of MS2 coat protein (input ligand: FMN 200 uM): 15.4 nM
- apparent KD of MS2 coat protein [1]: 34.2 nM
- apparent KD of MS2 coat protein (input ligand: none): 18.2 nM

Sequence: CAGUACUGAGGAUAUACAUGAGGAUCACCCAUGUGUGUGAGUUUUGGAUGAAUGUUAUGUAGAAGGCGGUGCUG [JR_Ex3_Sub036] (Eterna round: R97, puzzle: Exclusion 3)
- apparent KD of MS2 coat protein (input ligand: FMN 200 uM): 179 nM
- apparent KD of MS2 coat protein (input ligand: none): 466 nM

Sequence: UUUUUACAUGAGGAUCACCCAUGUCAGGAUAUUCUUAUAUUUUAUUAUUUUAUUUUUUGAAGAAGGGACUAUUA [My solution] (puzzle: Exclusion 1)
- apparent KD of MS2 coat protein [3]: 99.4 nM

Sequence: CUUUUGUGAGGAUAUUAGUAGUUUAUAAUUAAAAUUAUUACUGAGAAGGCACAUGAGGAUCACCCAUGUAAAAC [JR_Ex4_Sub029] (Eterna round: R97, puzzle: Exclusion 4)
- apparent KD of MS2 coat protein (input ligand: FMN 200 uM): 122 nM
- apparent KD of MS2 coat protein (input ligand: none): 104 nM

Sequence: ACUUAUUGAGGAUAUACAUAAAUUUACAUGAGGAUCACCCAUGUUCUUCUAUGUAUAUAUGUAGAAGGCAGAAGAA [JL-ex5-4.31 Malcolm mod] (Eterna round: R97, puzzle: Exclusion 5)
- apparent KD of MS2 coat protein (input ligand: FMN 200 uM): 27 nM
- apparent KD of MS2 coat protein (input ligand: none): 18.5 nM

Sequence: AAUAACAAGUAGAUCCUAAACAUGAGGAUCACCCAUGUGCUCGUCUUGUAAAGUACUAUCACGAAAGUGAUAGUACA (Eterna round: R97, puzzle: Sensor, turn-off variant 1)
- apparent KD of MS2 coat protein (input ligand: FMN 200 uM): 84.5 nM
- apparent KD of MS2 coat protein (input ligand: none): 85.2 nM

Sequence: AAUUAGUGAGGAUAUUUUAACAGUGGUAGUAGACAGUGGAUGAAGAAGGCACAUGAGGAUCACCCAUGUUAUAA [EX4 #55] (Eterna round: R97, puzzle: Exclusion 4)
- apparent KD of MS2 coat protein (input ligand: FMN 200 uM): 164 nM
- apparent KD of MS2 coat protein (input ligand: none): 147 nM

Sequence: GUAAAGUGAGGAUAUGGUAAAGUAAUUAUUUAGUAAGUAAUCCAGAAGGCACAUGAGGAUCACCCAUGUAAAUG [Mat - Exclusion 4 - D97] (puzzle: Exclusion 4)
- apparent KD of MS2 coat protein [3]: 25.7 nM

Sequence: AAGAAACAGCUAGGAUAUCAGACCAACAUGAGGAUCACCCAUGUCAAGGUCUUUCUUAGUAGGUUUGAGAAGGAGCCAUAAAUA [Xelequriqu] (Eterna round: R96, puzzle: Exclusion NG 2)
- apparent KD of MS2 coat protein (input ligand: FMN 200 uM): 11.7 nM
- apparent KD of MS2 coat protein [1]: 9.11 nM
- apparent KD of MS2 coat protein (input ligand: none): 11.2 nM

Sequence: AUGAUACAUGAGGAUCACCCAUGUUAGGAUAUACGCAUGCAUGCAUGCAUGCAUGCAAGUAGAAGGAACCAUGC [Design #2] (Eterna round: R97, puzzle: Exclusion 1)
- apparent KD of MS2 coat protein (input ligand: FMN 200 uM): 56.8 nM
- apparent KD of MS2 coat protein (input ligand: none): 48.2 nM
